Numbering of substitutions follows the chain as printed. Numbers in names are those of the source. Entries after “also recorded” stand apart in the source; their conditions may differ.
B1: dynK44A: dominant-negative dynamin mutant that cannot bind GTP (protein, UniProt Q05193 1-864, looked up, variant K44A)
Dynamin-1: MGNRGMEDLIPLVNRLQDAFSAIGQNADLDLPQIAVVGGQSAGASSVLENFVGRDFLPRGSGIVTRRPLVLQLVNATTEYAEFLHCKGKKFTDFEEVRLEIEAETDRVTGTNKGISPVPINLRVYSPHVLNLTLVDLPGMTKVPVGDQPPDIEFQIRDMLMQFVTKENCLILAVSPANSDLANSDALKVAKEVDPQGQRTIGVITKLDLMDEGTDARDVLENKLLPLRRGYIGVVNRSQKDIDGKKDITAALAAERKFFLSHPSYRHLADRMGTPYLQKVLNQQLTNHIRDTLPGLRNKLQSQLLSIEKEVEEYKNFRPDDPARKTKALLQMVQQFAVDFEKRIEGSGDQIDTYELSGGARINRIFHERFPFELVKMEFDEKELRREISYAIKNIHGIRTGLFTPDMAFETIVKKQVKKIREPCLKCVDMVISELISTVRQCTKKLQQYPRLREEMERIVTTHIREREGRTKEQVMLLIDIELAYMNTNHEDFIGFANAQQRSNQMNKKKTSGNQDEILVIRKGWLTINNIGIMKGGSKEYWFVLTAENLSWYKDDEEKEKKYMLSVDNLKLRDVEKGFMSSKHIFALFNTEQRNVYKDYRQLELACETQEEVDSWKASFLRAGVYPERVGDKEKASETEENGSDSFMHSMDPQLERQVETIRNLVDSYMAIVNKTVRDLMPKTIMHLMINNTKEFIFSELLANLYSCGDQNTLMEESAEQAQRRDEMLRMYHALKEALSIIGDINTTTVSTPMPPPVDDSWLQVQSVPAGRRSPTSSPTPQRRAPAVPPARPGSRGPAPGPPPAGSALGGAPPVPSRPGASPDPFGPPPQVPSRPNRAPPGVPSRSGQASPSRPESPRPPFDL
B2: dynL356Q, G358V: dynamin mutant (SEQ ID NO.3) not recognized by cathepsin L; ELSGGA mutated to EQSVGA (protein, listed as Homo sapiens)
chain: B1 Dynamin-1 with A44K, L356Q, G358V
B3: dynR725A: dynamin mutant (SEQ ID NO.4) with impaired GTP hydrolysis capacity (protein, listed as Homo sapiens)
chain: B1 Dynamin-1 with A44K, R725A

Key:
cathepsin L = assay: Generation of dynamin p40 fragment in LPS-treated cultured podocytes (Western blot); assay type: cell-based, mouse; conditions: podocytes expressing the variant, LPS-treated
Excerpt: Next, it was examined whether cathepsin L could process dynamin in vivo, and whether this processing required GTP binding by dynamin. To this end, cultured podocytes were infected with adenoviruses expressing dynWT as well as different dynamin mutants. Infected podocytes were subsequently treated with LPS. LPS treatment increases cathepsin L presence and the activity in the cytosol (FIG. 3), and thus is expected to induce generation of the 40 kD proteolytic fragment. Respective cytosols were probed using the GTPase antibodies in order to detect N-terminal 40 kD proteolytic fragment. Expression of dynWT in podocytes treated with LPS identified proteolytic fragments that traveled with the same mobility as fragments observed in vitro. […] Furthermore, significant amount of p40 was present in cells expressing dynR725A prior to LPS treatment. […] Given complete protection of cathepsin L cleavage by GTPγS, it was reasoned that LPS treatment was somehow inducing dynR725A self-assembly, which in turn was protecting dynR725A from cathepsin L cleavage. This in turn would explain ability of dynR725A to counteract LPS and PAN treatment (FIG. 1D). […] Biochemical difference between dynWT, dynK694A and dynR725A is that only dynR725A is impaired in the rate of GTP-hydrolysis of assembled dynamin. This is important because GTP-hydrolysis drives disassemble of dynamin. Thus, while all three dynamins are predicted to self-assemble by LPS treatment, only dynR725A will stay assembled due to its inability to hydrolyze GTP. Once assembled dynWT and dynK694A hydrolyze GTP they will fall apart and thus become accessible for cathepsin L cleavage.
To explore CatL-mediated dynamin cleavage in vivo, cultured podocytes were infected with adenoviruses encoding different dynamin mutants and subsequently treated with LPS (FIG. 19G). […] To confirm the identity of the cleavage site, the ELSGGA (SEQ ID NO.29) sequence was mutated to EQSVGA (SEQ ID NO.31) (for simplicity, the mutant is subsequently referred to as dynL356Q). […] Finally, a GTPase-defective dynamin mutant was examined. Dynamin carrying a mutation in its […] (dynR725A) oligomerizes, but is impaired in assembly-stimulated GTP-hydrolysis. DynR725A is therefore predicted to live longer in the assembled state.
Podocytes were grown under non-permissive conditions to 70% confluence. Cells were washed twice with 1×PBS and infected with 1.2 ml of serum-free DMEM media containing 100 μl transactivator virus, 100 μl virus expressing dyn1 or dyn2. After 2 h of infection at 37° C., media containing virus was replaced with full DMEM. If cells were treated with LPS or PAN, 50 μg/ml of LPS or 50 μg/ml PAN was added at this point. 18-24 h post-infection, cells were detached using trypsin and processed either for subcellular fractionation or tested in the motility assays as described in (Reiser et al., J Biol Chem 279, 34827-34832 (2004)). When stated, 20 μM of Z-FF-FMK CatL specific inhibitor (Calbiochem, San Diego, Calif.) was added simultaneously with addition of LPS.

podocyte FP = assay: Podocyte foot process architecture by electron microscopy after gene delivery; assay type: in vivo, mouse; conditions: gene delivery into wildtype mice
Excerpt: Next it was explored whether gene delivery of dynamin mutants dynR725A and dynL356Q, G358V into mice can be expressed in podocytes and if this procedure can affect podocyte FP architecture and function. First, we needed to establish a safe and reliable detection system of transferred gene expression in podocytes. Therefore we analyzed which dynamin isoforms are expressed in podocytes by RT-PCR. Podocytes express mainly dynamin 2 and little dynamin 3 but no dynamin 1 (FIG. 5A). Gene-transfer CMV promotor driven dynamin 1 constructs were used because neuronal dynamin protein is normally not expressed in podocytes and could be easily tracked by a specific monoclonal dynamin 1 antibody (FIG. 5B). […] Monoclonal dynamin antibodies MAB 5402 […] were used, which predominantly recognize dynamin 1 (FIG. 5B). Labeling of glomerular sections with MAB 5402 detected some minimal background labeling of dynamin, representing endogenous dynamin 2 (FIG. 5C). The gene transfer of dynamin 1 expression vectors led to a strong expression of dynamin 1 in glomerular cells including podocytes (FIG. 5D). Some of this labeling was also detected in podocytes, which are marked positively by synaptopodin staining, resulting in a yellow staining pattern (FIG. 5E).

Sequence of cathepsin L (P06797 114-333 limits assumed): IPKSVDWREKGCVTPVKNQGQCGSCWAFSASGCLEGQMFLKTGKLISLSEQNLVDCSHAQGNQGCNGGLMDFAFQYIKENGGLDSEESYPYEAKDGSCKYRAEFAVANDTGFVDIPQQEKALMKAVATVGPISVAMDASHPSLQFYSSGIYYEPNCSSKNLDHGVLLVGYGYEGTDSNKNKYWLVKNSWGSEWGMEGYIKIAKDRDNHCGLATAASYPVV

Row | Molecule | p40 generation from dynamin variant, in words (cathepsin L) | podocyte FP architecture, in words (podocyte FP)
1 | dynWT: wild type dynamin overexpressed by adenovirus or delivered as dynamin 1 cDNA | resulted in generation of p40 | did not result in changes of podocyte FP architecture
2 | B1 | did not result in detectable levels of p40 | induced a severe rearrangement of the actin based podocyte FPs
3 | B2 | yielded no p40 | did not show any significant changes in podocyte FP structure
4 | B3 | completely abolished presence of the p40; also recorded: did not generate p40 | resulted in partial FP effacement
